“Also recorded” adds a separate entry of the source.
How the values were obtained:
[1] = system: white flowered Petunia mutant (W80); type: in vivo; details: W80 line (lacks DFR activity, accumulates primarily DHK); DFR gene under 35S CaMV promoter
[2] = system: white flowered Petunia mutant (W80); assay: TLC analysis of anthocyanidins produced in transgenic W80 Petunia flowers; type: in vivo; details: W80 line, anthocyanidins on cellulose TLC against pelargonidin, cyanidin, delphinidin standards
Text: In accordance with the present invention, the substrate specificity determining region was identified by determining the abilities of three chimeric DFRs to catalyze the reduction of DHK in the transgenic Petunia lines. In order to identify the region of DFR that determines its substrate specificity, we constructed chimeric DFR genes using cDNA sequences of Petunia (SEQ ID NO: 35) and Gerbera (SEQ ID NO; 1). […] We built three different chimeric genes using regions of high homology as common PCR primer sites (FIG. 1A). The chimeric genes were transformed into a white flowered Petunia mutant (W80) that lacks DFR activity and accumulates primarily DHK but with appreciable amounts of dihydroquercetin (DHQ) and dihydromyricetin (DHM) (Huits et at, 1994). […] The hue of Chimera 1 flowers is very similar to the inbred Petunia mutant RLO1, which has functional DFR activity and accumulates DHK. […] The identified region (approx. 40 amino acids) is highly variable in DFRs from different plant species. By excluding the completely conserved amino acid sequences at the borders, the identified region is narrowed down to 26 amino acids. Hereinafter, this region is referred as substrate specificity determining region.
(§1) Anthocyanidins were separated on cellulose TLC plates as described (Johnson, et al. Plant J. 19:81-85 (1999)). Corollas were sometimes stored at 4° C. for extended periods of time in methanol-0.5% HCl solution. Before adding iso-amylalcohol, the flower extracts were quantified at 530 nm to ensure uniform loading on the TLC plate. Anthocyanin standards were purchased from Apin Chemicals Ltd. (Oxfordshire, England).

[3] = system: WR Petunia line (dfr^−/−, F3′H^+/+); assay: Flower colour of WR Petunia line crossed with DFR transformants; type: in vivo
Text: (§2) In accordance with the present invention, a DHK-specific DFR was developed by replacing asparagine at 134th amino acid residue of Gerbera DFR to leucine. […] Since the W80 Petunia line we transformed accumulates mainly DHK with small amount of DHQ and DHM, it was not clear if the N134L mutant DFR completely lost the capability of reducing DHQ and DHM. To investigate if the N134L mutant DFR produces only pelargonidin in the presence of fully active flavonoid-3′-hydroxylase (F3′H) or flavonoid-3′,5′-hydroxylase (F3′5′H), we crossed our N134L transformant with Petunia lines that are either dfr^−/−/F3′H^+/+ (WR line) or dfr^−/−/F3′5′H^+/+ (WV line). […] To determine the pigments produced in these crossed lines, we performed TLC analysis.
(§3) Gerbera DFR genes containing one amino acid point mutation were made in a similar manner as the chimeric genes. The 5′ region was synthesized using a primer having the Gerbera DFR starting methionine and a primer containing a single codon change. The 3′ region was made with a complementary primer with the single codon change and a primer having the stop codon of Gerbera DFR. The full length mutant sequence was assembled like the chimeric genes above. Each point mutant was cloned into a vector having the 35S CaMV promoter and NOS terminator. […] Mutations in other loci were not determined in these two Petunia lines.

[4] = system: WV Petunia line (dfr^−/−, F3′5′H^+/+); assay: Flower colour of WV Petunia line crossed with DFR transformants; type: in vivo
Text: as §2, §3

[5] = system: WR Petunia line (dfr^−/−, F3′H^+/+); assay: TLC analysis of pigments in WR crossed lines; type: in vivo
Text: as §2
(§4) Gerbera DFR genes containing one amino acid point mutation were made in a similar manner as the chimeric genes. The 5′ region was synthesized using a primer having the Gerbera DFR starting methionine and a primer containing a single codon change. The 3′ region was made with a complementary primer with the single codon change and a primer having the stop codon of Gerbera DFR. The full length mutant sequence was assembled like the chimeric genes above. Each point mutant was cloned into a vector having the 35S CaMV promoter and NOS terminator. The mutagenized region of each mutant DFR was sequenced to ensure the correct residue was changed. Point mutants were then transformed into the W80 Petunia line. The transformants expressing the DFR genes were crossed with WR Petunia line (dfr^−/−, F3′H^+/+) and WV Petunia line (dfr^−/−, F3′5′H^+/+) to determine the substrate specificity of the mutated DFR. Mutations in other loci were not determined in these two Petunia lines.
as §1, with “Anthocyanin standards were purchased from Apin Chemicals Ltd. (Oxfordshire, England).” left out

[6] = system: WV Petunia line (dfr^−/−, F3′5′H^+/+); assay: TLC analysis of pigments in WV crossed lines; type: in vivo
Text: as §2, §4
as §1, with “Anthocyanin standards were purchased from Apin Chemicals Ltd. (Oxfordshire, England).” left out

[7] = from literature; cited from earlier work
[8] = Substrate specificity of DFR (reduction of dihydroflavonols); details: concluded from flower colour and TLC data of WR and WV crosses
Text: as §2, §3

B1: Gerbera DFR: wild type Gerbera dihydroflavonol 4-reductase (SEQ ID NO: 2) (protein)
chain: MEEDSPATVCVTGAAGFIGSWLVMRLLERGYVVHATVRDPGDLKKVKHLLELPKAQTNLKLWKADLTQEGSFDEAIQGCHGVFHLATPMDFESKDPENEIIKPTIEGVLSIIRSCVKAKTVKKLVFTSSAGTVNGQEKQLHVYDESHWSDLDFIYSKKMTAWMYFVSKTLAEKAAWDATKGNNISFISIIPTLVVGPFITSTFPPSLVTALSLITGNEAHYSIIKQGQYVHLDDLCECHIYLYENPKAKGRYICSSHDATIHQLAKIIKDKWPEYYIPTKFPGIDEELPIVSFSSKKLIDTGFEFKYNLEDMFKGAIDTCREKGLLPYSTIKNHINGNHVNGVHHYIKNNDDDHEKGLLCCSKEGQ
[1]
  flower color of transgenic Petunia: orange/bric-red color
[2]; listed as native Gerbera DFR
  pigments produced in transgenic Petunia flowers (TLC): production of appreciable amounts of cyanidin and delphinidin in addition to pelargonidin
[2]; listed as wild type Gebera DFR
  pigments produced in transgenic Petunia flowers (TLC): accumulated significant amount of cyanidin and delphinidin in addition to perlargonidin
[3]
  flower color of crossed line: red colored flowers
[4]
  flower color of crossed line: violet colored flowers
[5]; listed as DFR^WT
  pigments accumulated in crossed line (TLC): mainly accumulated cyanidin
[5]; listed as wild type DFR
  pigments accumulated in crossed line (TLC): cyanidin
[6]; listed as DFR^WT
  pigments accumulated in crossed line (TLC): accumulated mainly delphinidin
[6]; listed as wild type DFR
  pigments accumulated in crossed line (TLC): delphinidin
[7]
  substrate use among DHK, DHQ and DHM: able to catalyze dihydrokaempferol (DHK)

B2: N134L: DFR that has leucine instead of aspargine at the 134th position of Gerbera DFR (SEQ ID NO 4) (protein)
chain: MEEDSPATVCVTGAAGFIGSWLVMRLLERGYVVHATVRDPGDLKKVKHLLELPKAQTNLKLWKADLTQEGSFDEAIQGCHGVFHLATPMDFESKDPENEIIKPTIEGVLSIIRSCVKAKTVKKLVFTSSAGTVLGQEKQLHVYDESHWSDLDFIYSKKMTAWMYFVSKTLAEKAAWDATKGNNISFISIIPTLVVGPFITSTFPPSLVTALSLITGNEAHYSIIKQGQYVHLDDLCECHIYLYENPKAKGRYICSSHDATIHQLAKIIKDKWPEYYIPTKFPGIDEELPIVSFSSKKLIDTGFEFKYNLEDMFKGAIDTCREKGLLPYSTIKNHINGNHVNGVHHYIKNNDDDHEKGLLCCSKEGQ
[1]
  flower color of transgenic Petunia: slightly different colored flowers
[2]
  pigments produced in transgenic Petunia flowers (TLC): accumulated mostly pelargonidin
[2]; listed as DHK-specific DFR
  pigments produced in transgenic Petunia flowers (TLC): production of only pelargonidin
[3]
  flower color of crossed line: orange colored flowers
[4]
  flower color of crossed line: white flowers
[5]; listed as DFR^N134L
  pigments accumulated in crossed line (TLC): accumulated pelargonidin and cyanidin; also recorded: accumulated a large amount of pelargonidin
[6]; listed as DFR^N134L
  pigments accumulated in crossed line (TLC): did not accumulated any pigment other than background level of delphinidin; also recorded: no appreciable amounts of anthocyanidins accumulated other than a background level of delphinidin
[8]
  substrate preference among DHK, DHQ and DHM: preferentially utilizes DHK as a substrate over DHQ and cannot reduce DHM

B3: maize DFR: maize DFR introduced into a Petunia mutant line (Meyer et al.) (protein, UniProt P51108 1-357, looked up)
Dihydroflavonol 4-reductase: MERGAGASEKGTVLVTGASGFVGSWLVMKLLQAGYTVRATVRDPANVGKTKPLMDLPGATERLSIWKADLAEEGSFHDAIRGCTGVFHVATPMDFLSKDPENEVIKPTVEGMISIMRACKEAGTVRRIVFTSSAGTVNLEERQRPVYDEESWTDVDFCRRVKMTGWMYFVSKTLAEKAALAYAAEHGLDLVTIIPTLVVGPFISASMPPSLITALALITGNAPHYSILKQVQLIHLDDLCDAEIFLFENPAAAGRYVCSSHDVTIHGLAAMLRDRYPEYDVPQRFPGIQDDLQPVRFSSKKLQDLGFTFRYKTLEDMFDAAIRTCQEKGLIPLATAAGGDGFASVRAPGETEATIGA
[7]
  substrate use among DHK, DHQ and DHM: can convert all three dihydroflavonols to their leucocyanidins

Reference: US6555734B2, “Genetic sequences encoding substrate-specific dihydroflavonol 4-reductase and uses therefor” (Korea Kumho Petrochemical Co., Ltd., priority 2000, dated 2003)
